Measured values from patent publication US11732048B2, “Anti-axl antagonistic antibodies” (BERGEN TEKNOLOGIOVERFØRING AS, priority 2016, dated 2023).

Assays:
[1] = biological target: T1, mouse Axl (rmAxl-Fc chimera; Mm-Axl-Fc) (Mus musculus, UniProt Q00993); assay: Biacore binding analysis on immobilised mouse Axl
T1 construct: The soluble recombinant antigens corresponding to human Axl (rhAxl-Fc chimera; R&D Systems, Cat. no; 154-AL), mouse Axl (rmAxl-Fc chimera; Fc; purchased R&D Systems 854-AX
Procedure: The binding experiments were performed using Biacore 3000 instrument (GE Healthcare) at 25° C. The soluble recombinant antigens corresponding to human Axl (rhAxl-Fc chimera; R&D Systems, Cat. no. 154-AL), mouse Axl (rmAxl-Fc chimera; R&D Systems, R&D Systems; Cat. no. 854-AX) and human Tyro3 (rhTyro3/Dtk-Fc chimera; R&D Systems, Cat. no. 859-DK) were immobilized on the surface of CM5 sensor chip using amine coupling at the surface density of 1,308.0, 2,115.9 and 1,429.0 RU, respectively. The Biacore runs were performed in an automatic mode using Binding analysis wizard.
The sample containing MAb 10G5 or recombinant mouse (rm) Axl-ligand Gas6 (R&D Systems, Cat. no. 986-GS/CF) at concentration 10 μg/mL in HBS-EP buffer (GE Healthcare) was injected over the surfaces with immobilized antigens at flow rate of 30 μL/min for 3 min (association) followed by 5 min dissociation.
(§1) Sensor chip with immobilised Axl: Hs-Axl-Fc (638.2 RU), Mm-Axl-Fc (334.5 RU), Rhe-Axl-Fc (350.2 RU)
(§2) All tests were performed in parallel on Hs-Axl-Fc, Mm-Axl-Fc and Rhe-Axl-Fc surfaces.

[2] = biological target: T2, Axl receptor protein in MBA-MD-231 cells (Homo sapiens, UniProt P30530); assay: Western blot of Axl receptor protein after antibody treatment; assay type: cell-based; conditions: 100 μg/mL, 20 hrs, versus irrelevant IgG or MAb #3
T2 construct: The expression of Axl receptor protein in MBA-MD-231 cells treated with different antibodies was examined by Western blot analysis; endogenous in cells; host or cells: MDA-MB-231 (printed 'MBA-MD-231') human breast carcinoma cells
Procedure: The expression of Axl receptor protein in MBA-MD-231 cells treated with different antibodies was examined by Western blot analysis. The cells were seeded in a 6-well plate at density of 5×10^5 cells per well and cultured overnight before treatment initiation. The cells were treated for 20 hrs in the presence of isotype control (mouse IgG2b), anti-Axl antibodies (10G5 and MAb #3) at concentrations of 100 μg/mL or multikinase inhibitor Foretinib (targets Met, Ron, Axl, Tie-2, and VEGFR2) at a concentration of 0.5 μM followed by harvesting by centrifugation at 1,200 rpm for 5 min and washing with sterile PBS. The cells were collected by centrifugation and resuspended in NP40-lysis buffer followed by 30 min incubation on ice. The cell lysates were cleared by centrifugation (12,000 rpm, 4° C., 5 min) and the protein concentrations were determined using BCA protein assay. The cell lysate samples comprising 35 μg of total protein were denatured in presence of the reducing agent (Life Technologies) and loaded into the wells of NuPAGE 10% Bis-Tris polyacrylamide (PAA) gel, 1.0 mm×12 well (Invitrogen). The electrophoresis was performed using Bis-Tris SDS running buffer under the recommended conditions (Life Technologies) and the proteins were transfer on PVDF membrane, as described for 2 gels in a manual for XCell II™ Blot Module (Invitrogen) using the transfer buffer with 20% methanol. […]

Hu-Axl-Fc = biological target: T3, Hu-Axl-Fc (Homo sapiens, UniProt P30530); assay: Biacore competition binding c10G5 versus YW327.6S2-var (Example 21); conditions: 666.7 nM each, first and second sample
T3 construct: Fc
Procedure: Injections: • Use Flow Cell(s): 2 with 1 as reference • Flow Rate: 30 (μL/min) • Number of Injections: 2 • First Sample: • Injection Time: 3 (min) • Wait After Injection: 2.5 (min) • Second Sample: • Injection Time: 3 (min) • Wait After Injection: 2.5 (min)
The competitive binding analysis was performed by injecting a first sample (MAbs c10G5 or YW327.6S2-var) at a concentration sufficient to reach plateau within 1-2 min followed by injection of MAb YW327.6S2-var as a second sample (FIG. 21A).
In a second part of the of experiment, the antibody YW327.6S2-var was injected as a first sample followed by injection of either antibody YW327.6S2-var or c10G5 as a second sample (FIG. 21B).

[3] = biological target: T4, Hs-Axl-Fc (immobilized Axl-Fc) (Homo sapiens, UniProt P30530); assay: Biacore binding competition assays, two injections (Example 22)
T4 construct: Fc
Excerpt: as §1
In this experiment, a first antibody was allowed to bind to saturation. A second antibody was then applied and its ability to bind was monitored.
If the second antibody recognizes the same (or overlapping) epitope as the first antibody then binding will be blocked. If the second antibody recognizes a different epitope then binding will be detected at the same level as if no first antibody was present.
The ability of Gas6 to block antibody binding was also tested, using Gas6 at 10 μg/mL in HBS-EP.
as §2
See FIG. 1 for a list of the pairs that were tested (in this list Contr-1 is incorrectly labeled YW367 instead of YW327.6S2var). All antibodies were at 25 μg/mL in HBS-EP.
• 2. Perform Biacore experiments at 25° C. • 3. In the instrument control software choose Direct Binding, and select settings for two injections as shown below. • 4. […] Store the template & the result file, start the analysis.

T1 sequence (Q00993 19-445 limits assumed, change not shown): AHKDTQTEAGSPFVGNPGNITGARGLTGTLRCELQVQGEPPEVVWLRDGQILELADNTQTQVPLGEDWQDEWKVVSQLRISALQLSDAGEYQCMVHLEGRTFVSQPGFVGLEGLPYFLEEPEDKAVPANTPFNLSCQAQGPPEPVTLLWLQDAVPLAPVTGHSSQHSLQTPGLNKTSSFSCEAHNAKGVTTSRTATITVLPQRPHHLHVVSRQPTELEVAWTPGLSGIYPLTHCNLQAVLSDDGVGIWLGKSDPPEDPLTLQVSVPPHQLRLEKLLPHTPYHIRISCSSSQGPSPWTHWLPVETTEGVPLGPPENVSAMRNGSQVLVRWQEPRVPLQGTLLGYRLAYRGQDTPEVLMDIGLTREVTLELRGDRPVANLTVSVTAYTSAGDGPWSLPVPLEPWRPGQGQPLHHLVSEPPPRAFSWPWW

B1: murine 10G5: mouse monoclonal anti-human Axl antibody from hybridoma WR-10G5-E5; VH SEQ ID NO: 28, VL SEQ ID NO: 29 (antibody, listed as Mus musculus, V domains shown)
VH: QVQLQQSGAELVRPGASVKLSCKASGYSFTDFYINWVRQRPGQGLEWIARIFPGGDNTYYNEKFKGKATLTAEESSSTAYIQLSSLTSEDSAVYFCARRGLYYAMDYWGQGISVTVSS
VL: DVLMTQTPLSLPVSLGDQASISCRSSQSLVHSNGIPYLHWYLQKPGQSPKLLIYRVSNRFSGVPDRFSGSGSGTDFTLKISRVEAEDLGVYFCSQGTHVPPTFGGGTKLEIK
modifications: (1)..(118) Mus musculus 10G5 VH domain; (1)..(112) Mus musculus 10G5 VL domain
Question: How did the “Binding to mouse Axl” value [1] turn out when B1 was run?
Answer: no significant binding

Question: And the “Axl receptor protein level” value [2]?
Answer: significant reduction in the amount of Axl receptor protein

Question: What about the “Competition between 10G5 and YW327.6S2 for binding to Axl” value (Hu-Axl-Fc) of the same molecule?
Answer: does not compete

Question: And the “Competition with 1H12 for binding to Axl” value [3]?
Answer: No competition
